Measured values as given in patent publication US20240148892A1.

Target: human full-length B7H3 expressed on MCF-7 cells (human) (UniProt Q5ZPR3)
Assay: cell-based or functional assay

Chain of human full-length B7H3 expressed on MCF-7 cells (human) (Q5ZPR3 29-534 limits assumed): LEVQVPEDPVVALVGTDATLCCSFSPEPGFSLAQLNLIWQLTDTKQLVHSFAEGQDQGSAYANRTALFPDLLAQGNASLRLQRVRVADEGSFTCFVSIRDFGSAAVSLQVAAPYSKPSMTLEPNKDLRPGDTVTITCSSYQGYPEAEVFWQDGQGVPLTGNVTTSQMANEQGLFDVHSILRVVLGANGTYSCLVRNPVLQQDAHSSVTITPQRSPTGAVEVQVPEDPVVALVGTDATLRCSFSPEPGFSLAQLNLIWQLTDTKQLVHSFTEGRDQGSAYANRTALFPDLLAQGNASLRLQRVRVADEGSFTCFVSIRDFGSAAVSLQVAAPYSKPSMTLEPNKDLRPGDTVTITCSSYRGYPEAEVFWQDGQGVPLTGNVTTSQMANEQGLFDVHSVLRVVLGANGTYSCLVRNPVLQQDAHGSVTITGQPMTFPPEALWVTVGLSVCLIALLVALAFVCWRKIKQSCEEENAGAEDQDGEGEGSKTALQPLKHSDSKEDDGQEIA

B1: reference ADC-1 (Daiichi Sankyo, DS7300) (protein, INN chains, looked up)
VH: QVQLVQSGAEVKKPGSSVKVSCKASGYTFTNYVMHWVRQAPGQGLEWMGYINPYNDDVKYNEKFKGRVTITADESTSTAYMELSSLRSEDTAVYYCARWGYYGSPLYYFDYWGQGTLVTVSS
VL: EIVLTQSPATLSLSPGERATLSCRASSRLIYMHWYQQKPGQAPRPLIYATSNLASGIPARFSGSGSGTDFTLTISSLEPEDFAVYYCQQWNSNPPTFGQGTKVEIK
modifications: deruxtecan payload
IC50 of inhibition of proliferation, A375 melanoma cells (CellTiter-Glo): 0.315 µM | IC50 of inhibition of proliferation, A549 lung cancer cells (CellTiter-Glo): 0.379 µM | IC50 of inhibition of proliferation, Calu-6 lung cancer cells (CellTiter-Glo): 0.428 µM | IC50 of inhibition of proliferation, HT-29 colorectal cancer cells (CellTiter-Glo): 1.14 µM | IC50 of inhibition of proliferation, MCF-7 breast cancer cells (CellTiter-Glo): 0.435 µM | IC50 of inhibition of proliferation, NCI-H358 lung cancer cells (CellTiter-Glo): 0.123 µM | IC50 of inhibition of proliferation, NCI-H1568 lung cancer cells (CellTiter-Glo): 0.0328 µM | IC50 of inhibition of proliferation, PC-3 prostate cancer cells (CellTiter-Glo): 0.959 µM | IC50 of inhibition of proliferation, U87 MG brain cancer cells (CellTiter-Glo): 0.354 µM
